How the values were obtained:
[1] = target: PD-1 (antigen of the ELISA and of the in vitro affinity measurement) (UniProt Q15116); experiment: ELISA; parameters: Bmax: unit not given here
[2] = target: hPD1-mFc (human); experiment: kinetic binding table: huPDL1-hFc captured as ligand (capture level 53.4 RU), hPD1-mFc as sample; method not given
Chain of hPD1-mFc (human) (Q15116 25-170): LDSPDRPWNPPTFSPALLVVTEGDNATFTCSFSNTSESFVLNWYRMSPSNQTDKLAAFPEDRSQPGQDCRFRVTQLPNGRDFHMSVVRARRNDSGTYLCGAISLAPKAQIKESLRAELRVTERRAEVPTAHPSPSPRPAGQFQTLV

Chain of PD-1 (antigen of the ELISA and of the in vitro affinity measurement) (Q15116 25-167 limits assumed): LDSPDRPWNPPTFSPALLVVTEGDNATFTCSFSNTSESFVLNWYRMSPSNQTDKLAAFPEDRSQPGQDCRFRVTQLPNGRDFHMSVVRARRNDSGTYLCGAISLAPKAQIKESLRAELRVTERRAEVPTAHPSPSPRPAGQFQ

| Substance | Bmax [1] | Kd [1] | Kd [2] | koff [2] | kon [2] |
| --- | --- | --- | --- | --- | --- |
| XR034 (Pembro IgG) (antibody) | 1.37 | 0.32 nM | – | – | – |
| huPDL1-hFc (from UniProt Q9NZQ7) (Fc fusion) | – | – | 74.1 nM | 0.025 s⁻¹ | 338000 M⁻¹ s⁻¹ |
